Three molecules from patent US20210388084A1 (JJP BIOLOGICS SP Z O O, published 2021) can be followed below.

The target in test [1] is T1, membrane full-length cynomolgus monkey CD89 (cynomolgus monkey).
T1 construct: also called cynoCD89; cynomolgus EC1-CD89
T1 chain: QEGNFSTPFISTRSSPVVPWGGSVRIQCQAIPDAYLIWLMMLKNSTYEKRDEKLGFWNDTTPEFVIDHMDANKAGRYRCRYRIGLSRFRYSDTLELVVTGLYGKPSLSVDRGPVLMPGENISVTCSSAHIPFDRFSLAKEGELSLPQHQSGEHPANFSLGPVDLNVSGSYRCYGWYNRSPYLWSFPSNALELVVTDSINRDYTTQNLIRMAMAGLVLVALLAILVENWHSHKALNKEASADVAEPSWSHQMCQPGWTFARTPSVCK
Briefly: FACS, transiently transfected HEK293F; - = no binding. (In general: A flow cytometer gives signals particle by particle.)
Experimental: After 48 hours, the binding of CD89/IgA blocking mouse anti-human CD89 antibodies to aforementioned chimeric human CD89/cynomolgus monkey CD89 constructs on transfected cells was analyzed by FACS analysis. To this end, transient transfected HEK293F cells were put at 10×10⁶ cells/mL in ice-chilled phosphate-buffered saline containing 0.1% BSA (Sigma)/0.05% NaN₃ (PBS/BSA/NaN₃) supplemented with 50 μg/mL human IgGs (blocking Fcγ receptors; Sigma) for 10 minutes at 4° C. Then, 10 μL/tube (ie, 0.1×10⁶ cells) of these cells were incubated with or without 100 μL purified mouse anti-human CD89 antibody at 10 μg/mL (in PBS/BSA/NaN₃) for 30 minutes at 4° C. […] After extensive washing in PBS/BSA/NaN₃, cells were subsequently incubated with 1:200 diluted PE-conjugated goat anti-mouse IgG Fey-specific antibodies (Jackson ImmunoResearch) for 30 minutes at 4° C. After extensive washing in PBS/BSA/NaN₃, cells were fixed in 2% formaldehyde in PBS/BSA/NaN₃ for 30 minutes at 4° C.

Test [2] has as its target T2, membrane-bound full-length human CD89 (human, UniProt P24071 22-287).
T2 construct: on stably or transiently transfected HEK293F cells; also called FcalphaRI; huCD89
Nature of the test: FACS, HEK293F-huCD89, unlabeled Ab 10 ug/mL first; competitor MIP8a-PE.
Experimental: (§1) Then, 10 μL/tube (ie, 0.1×10⁶ cells) of these cells were incubated with or without 100 μL purified mouse anti-human CD89 antibody at 10 μg/mL (in PBS/BSA/NaN₃) for 30 minutes at 4° C. […] After extensive washing in PBS/BSA/NaN₃, cells were fixed in 2% formaldehyde in PBS/BSA/NaN₃ for 30 minutes at 4° C.

Test [3] deals with T2, membrane-bound full-length human CD89. Nature of the test: FACS, HEK293F-huCD89, 24 h 37C no NaN3, Ab 10 ug/mL then IgA; competitor non-aggr serum IgA.
Experimental: (§2) After extensive washing in PBS/BSA/NaN₃, 1:200 diluted PE-conjugated streptavidin (Jackson ImmunoResearch) was added, and incubated for 30 minutes at 4° C. After extensive washing in PBS/BSA/NaN₃, cells were fixed in 2% formaldehyde in PBS/BSA/NaN₃ for 30 minutes at 4° C.
The target is the same in test [4]. Briefly: FACS, HEK293F-huCD89, 24 h 37C no NaN3, Ab 10 ug/mL then IgA; competitor heat-aggr serum IgA.
Experimental: as §2
The target is the same in test [5]. Briefly: FACS, HEK293F-huCD89, 24 h 37C no NaN3, IgA then Ab 10 ug/mL; pre-bound heat-aggr serum IgA.
Experimental: as §2
Test [6] shares this target. Briefly: FACS, HEK293F-huCD89, half-maximum binding.
Experimental: Then, 10 μL/tube (ie, 0.1×10⁶ cells) of these cells were incubated with or without 100 μL titrated (in PBS/BSA/NaN₃) purified chimeric mouse/human anti-human CD89 antibody/tube for 30 minutes at 4° C. […] After extensive washing in PBS/BSA/NaN₃, cells were subsequently incubated with 1:200 diluted PE-conjugated goat anti-human IgG Fey-specific antibodies (Jackson ImmunoResearch) for 30 minutes at 4° C. After extensive washing in PBS/BSA/NaN₃, cells were fixed in 2% formaldehyde in PBS/BSA/NaN₃ for 30 minutes at 4° C.
For test [7] the target is unchanged. Nature of the test: FACS, HEK293F-huCD89, 24 h 37C no NaN3, IgA then Ab 10 ug/mL; pre-bound non-aggr serum IgA.
Experimental: as §2
Test [8] concerns the target T3, chimeric bovine EC1-Fcγ2R/human EC2-CD89 (bovine/human chimera).
T3 chain: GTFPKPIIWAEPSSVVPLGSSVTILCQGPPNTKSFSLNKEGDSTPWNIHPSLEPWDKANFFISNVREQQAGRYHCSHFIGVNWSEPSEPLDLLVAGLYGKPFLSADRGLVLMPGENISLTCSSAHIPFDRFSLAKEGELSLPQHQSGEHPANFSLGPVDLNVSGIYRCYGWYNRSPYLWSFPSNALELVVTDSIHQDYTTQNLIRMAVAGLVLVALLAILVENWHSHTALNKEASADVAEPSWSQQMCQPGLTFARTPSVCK
Nature of the test: FACS, transiently transfected HEK293F.

For test [9], the target named is T2, membrane-bound full-length human CD89. Nature of the test: FACS, HEK293F-huCD89, 4C +NaN3, Ab 10 ug/mL then IgA; competitor heat-aggr serum IgA.
Experimental: To mimic human IgA immune complexes, human (serum-derived) IgA (Bethyl Laboratories) was heated at 63° C. for 30 minutes, and cooled down to RT followed by centrifugation at 4° C. 12000×g for 2 minutes to remove any insoluble protein precipitation.
Then, 10 μL/tube (ie, 0.1×10⁶ cells) of these cells were incubated with or without 50 μL purified mouse anti-human CD89 antibody at 20 μg/mL (in PBS/BSA/NaN₃) for 30 minutes at 4° C.
Test [10] shares this target. Nature of the test: FACS, HEK293F-huCD89, unlabeled Ab 10 ug/mL first; competitor A3-PE.
Experimental: as §1
Test [11] shares this target. Briefly: FACS, HEK293F-huCD89, 4C +NaN3, Ab 10 ug/mL then IgA; competitor non-aggr serum IgA.
Experimental: Then, 10 μL/tube (ie, 0.1×10⁶ cells) of these cells were incubated with or without 50 μL purified mouse anti-human CD89 antibody at 20 μg/mL (in PBS/BSA/NaN₃) for 30 minutes at 4° C. […] After extensive washing in PBS/BSA/NaN₃, 1:200 diluted PE-conjugated streptavidin (Jackson ImmunoResearch) was added, and incubated for 30 minutes at 4° C. After extensive washing in PBS/BSA/NaN₃, cells were fixed in 2% formaldehyde in PBS/BSA/NaN₃ for 30 minutes at 4° C.
The target in test [12] is T4, recombinant C-terminal polyhistidine-tagged human (extracellular) CD89 (human, UniProt P24071 22-227).
T4 construct: extracellular domain; bought (Sino Biological); also called rhuCD89
Nature of the test: ELISA, coated rhuCD89, half-maximum binding. (In an ELISA, binding on a coated surface is turned into a signal by an enzyme label.)
Experimental: After extensive washing with PBS/0.05% Tween 20, plates were blocked with PBS/0.05% Tween 20/1% BSA (Roche) for 1 hour at RT. Subsequently, plates were incubated with 50 μL titrated (in block buffer) purified mouse anti-human CD89 antibody/well for 1 hour at RT. […] After extensive washing in PBS/0.05% Tween 20, binding of antibodies on rhuCD89 was determined with 1:5,000 diluted horseradish peroxidase (HRP)-conjugated goat anti-mouse IgG Fey-specific antibodies (Jackson ImmunoResearch) for 1 hour at RT, followed by a ready-to-use solution of TMB substrate (Invitrogen) for colorimetric detection.
After extensive washing with PBS/0.05% Tween 20, plates were blocked with PBS/0.05% Tween 20/1% BSA (Roche) for 1 hour at RT. Subsequently, plates were incubated with and without 50 μL titrated (in block buffer) purified chimeric mouse/human anti-human CD89 antibody/well for 1 hour at RT. After extensive washing in PBS/0.05% Tween 20, binding of antibodies on rhuCD89 was determined with 1:5,000 diluted horseradish peroxidase (HRP)-conjugated goat anti-human IgG Fey-specific antibodies (Jackson ImmunoResearch) for 1 hour at RT, followed by a ready-to-use solution of TMB substrate (Invitrogen) for colorimetric detection.

Test [13] deals with T5, chimeric human/cynomolgus monkey CD89-I (human/cynomolgus monkey chimera, UniProt P24071 22-287).
T5 construct: also called ΔGln22-Lys46 human EC1-CD89; I (22-46)
T5 chain: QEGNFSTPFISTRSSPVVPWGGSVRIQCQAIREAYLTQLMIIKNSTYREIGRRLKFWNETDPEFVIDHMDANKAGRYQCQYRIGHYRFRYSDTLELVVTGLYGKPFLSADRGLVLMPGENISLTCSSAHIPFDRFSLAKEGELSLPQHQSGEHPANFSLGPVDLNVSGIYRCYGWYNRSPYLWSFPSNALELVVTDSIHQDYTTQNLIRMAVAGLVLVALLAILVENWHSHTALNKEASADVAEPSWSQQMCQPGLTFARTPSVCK
Briefly: FACS, transiently transfected HEK293F, 10 ug/mL; ++ strong, + intermediate, -/+ weak.

Test [14] concerns the target T6, chimeric human/cynomolgus monkey CD89-IV (human/cynomolgus monkey chimera, UniProt P24071 22-287).
T6 construct: also called ΔArg97-Gly121 human EC1-CD89
T6 chain: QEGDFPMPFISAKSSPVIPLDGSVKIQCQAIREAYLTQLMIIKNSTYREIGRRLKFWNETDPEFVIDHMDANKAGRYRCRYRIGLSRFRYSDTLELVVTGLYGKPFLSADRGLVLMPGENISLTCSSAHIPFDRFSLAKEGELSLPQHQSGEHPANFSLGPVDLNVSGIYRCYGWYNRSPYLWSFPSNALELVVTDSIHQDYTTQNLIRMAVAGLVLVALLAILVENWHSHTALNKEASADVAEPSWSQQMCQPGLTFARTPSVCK
Described as above.

B1: mouse anti-human CD89-specific antibody 10E7 (antibody, mouse IgG1, V domains shown)
VH: EVQLVESGGGLVQPGGSLKLSCAASGLTFSSYGMSWVRQTPDKRLELVATINGNGDITYYPDSVKGRFTISRDNAKNTLYLQMSSLKSEDTAMYYCARDYDYDYAMDYWGQGTSVTVSS
VL: DIQMTQSTSSLSASLGDSVTISCRASQDIINYLNWYQQKPDGTVKLLIYYTSRLHSGVPSRFSGSGSGTEYSLTVSNLEKEDIATYFCQQGKTLPYTFGGGTKLEIK
One may read the EC50 as the concentration at which the effect is half-maximal. Take B1: the binding result in [1] is reported as “no binding (tested: 10 µg/mL)”; in test [8] it was “no binding (tested: 10 µg/mL)”; in test [13], “binds”; in test [14] it was “binds”. Moreover, the “% blocking of MIP8a-PE binding” value in test [2] is under 25%. The “percent IgA binding (remaining)” value in test [3], in test [4], in test [5] and in test [7] was 0 to 25% throughout. The concentration giving a half-maximal response (EC50) in [6] stood at 0.637 µg/mL; in [12], 0.02 µg/mL. Besides, the “percent IgA binding” value in [9] and in test [11] was 0 to 25% each time. In addition, in test [10], the “% blocking of A3-PE binding” value is under 25%.

B2: mouse anti-human CD89-specific antibody 20B4 (antibody, mouse IgG1, V domains shown)
VH: QVQLKESGPGLVAPSQSLSITCTVSGFSLTSYGVHWVRQPPGKGLEWLGIIWAGGSTSYNSALMSRLSISKDNSKSQVFLKMNSLQTDDTAMYYCARDHYDLFAYWGQGTLVTVSA
VL: DILMTQSPSSMSVSLGDTVSITCHASQDISRNIGWLQQKPGKSFKGLIYHGTNLEDGVPSRFSGSGSGADYSLTISSLESEDFADYYCVQYAQFPRTFGGGTKLEIK
On to B2, for which the binding result was “no binding (tested: 10 µg/mL)” in test [1], “no binding (tested: 10 µg/mL)” in test [8], “binds” in test [13] and “binds” in test [14]. For the same molecule, the “% blocking of MIP8a-PE binding” value in test [2] was under 25%. The “percent IgA binding (remaining)” value fell in the range of 0 to 25% in test [3], 26 to 50% in [4], 26 to 50% in test [5] and 0 to 25% in test [7]. Further, the concentration for a half-maximal effect (EC50) in test [6] is 0.26 µg/mL; in [12] it was 0.013 µg/mL. For the same molecule, the “percent IgA binding” value in [9] and in [11] was 0 to 25% in each case.

B3: mouse anti-human CD89-specific antibody 8F3 (antibody, mouse IgG1, V domains shown)
VH: EVQLVESGGGLVKPGGSLKLSCAASGFTFSNYGMSWVRQTPDKRLEWVATMHSGGTYTYYPDNVKGRFTISRDNAKNNLYLQMSSLRSEDTAMYYCARETGLYDGLFDFWGQGTTLTVSS
VL: DVQITQSPSYLAASPGETITINCRASKTISKYLAWYQEKPGKTNMLLIYSGSTLQSGVPSRFSGSGSGTDFTLTISSLEPEDLAMYYCQQHDEYPWTFGGGTKLEIK
Take B3: the binding result in [1] is “no binding (tested: 10 µg/mL)”; in [8], “no binding (tested: 10 µg/mL)”; in test [13] it was “binds”; in test [14], “binds”. In test [2], the “% blocking of MIP8a-PE binding” value was under 25%. Further, the “percent IgA binding (remaining)” value in [3], in test [4], in test [5] and in test [7] was 0 to 25% in each case. In addition, the EC50 in test [6] came to 0.714 µg/mL; in [12] it was 0.052 µg/mL. Moreover, the “percent IgA binding” value in [9] and in test [11] was 0 to 25% in each case. The “% blocking of A3-PE binding” value in test [10] was under 25%.
